For 47 sequences, protease stability score results are on record in the NTF2 design screens of Basanta et al. (2020).

This data set can be described thus: protease stability score; higher = more stable; yeast display proteolysis, trypsin and chymotrypsin.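 Note: log10 excess protease needed over predicted unfolded state with 0 meaning unfolded.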

In turn, “DEKEAKKLLEQFAKKVVNGDYEEVVKHVKDDGEAEYGDERKHGPDAVETFIRKYQKLGIKVTYDEVHVEGDTVTVKVRADYAGQTAHFKFQYHVRDQRLDRVEVKYDETAQKMIKHG” came in with a protease stability score of 0.542.

With “DEKEAQKLLEKIAKTMKNGDTETAKKLGKDDVEVKYADDEHHGPDAIKKMLEKLKKLGLEVEYKEIHVEGDTVRVKVQVHHGGTTAHMEVEYQARGRKVDNMRVKYDERAKKLIKHG”, the protease stability score was 0.471.

Sequence “DEKEDKKVLERMAKLFVSGNKEEVQKMGKDDVEVVYGDETYHGPDAARKVIERVKKLGAKVEYKEVHVEGDTMTAKVEADIAGKRVRFHVTYKATGNRVDRMEVKYTKEAQEVIKHG” registered a protease stability score of 0.895.

In turn, “DEKEDLTRWIEQFVHNLEHGDEERLSQLADPNARFKYGDRTLHGMENAIKTLADVMRRVDQVRIRINDITHHENRVIVDLSFVLNHNGQERHYNAKMVAYIHNGTFRIETASMK” yielded a protease stability score of 0.929.

In the case of “DEKEDRKLLQQLAEMFQNGDVERVRKLGKDDVEAEYGDERQHGPDAMKKFVERVKKLGAKVEYKEVHVEGDTVTAKVQADYAGQTVEMHVTYQAQGRRMDRVKVKYDETAQKVIKHG”, the protease stability score amounted to 0.566.

As for “DEKEEAEKFFEQYKHALHRGDPDQMANLADKDVRAEIGDKVVHGRDQLMTYVKTLKEHYDDISLKLKDVQVSGDKAQLHAVLTLNHNGKNDKIHIVIRMVRQGDELVMTSITYR”, the protease stability score worked out at 0.935.

The sequence “DEKEEAHRALTAMHKMMTGDFKEVMKNADENVHVEIGDKEFHGREDLHDFAREIQERVDDFRVSSVTAKGDSAVLNVRQDYNGRNERVRLEVQVSNGKIKHVRFQTG” displayed a protease stability score of -0.341.

Take “DEKEEARELMERLREIIETGNEREAKKLADKDARNNVGDKVLHGREEIVRQLITLYKTADHVDLKFRDYRVDNGKFTMDMKVRFHHNGNTIERRYQMSFDTHNGRLTATRYRNS”: the protease stability score stood at 1.06.

Regarding “DEKEHATEWLEDWQQQLRTGDEKSVANLFDPNARLNVGDKEVHGREDFEKEQKKIREEADHVDVEIVDLKTSPGHIQMFFNLRQTHNGQRQSHREVMVLRLQGDEVRVVKVEHN”, the protease stability score is -0.056.

Sequence “DEKEHEDVAQEAVHAVQSGDPKQMVEMADPNARVVVGDKTLHGHDRIEEMVKHLRKRADHVRIIDVQVQGDKVVIRFQVVVDGRTYDVYIDLRVHNGEAKEIRFDPRRQKEMHG” had a protease stability score of 0.758.

In turn, “DEKEIHEIAETFVEVLRNGNHDDLKELMDENVKLVYGDKELQGHHRAASHLAELVSRVDHMSVDSITVNGDSVKVIMQFVVNGVTAHITIIIKMTNGRIKELEIRYTNEDQRRQVDK” gave a protease stability score of 0.941.

For “DEKEIQKLLEQLMKMFVNGNDEQIKKLGKDDVEATYMDEKVTGPDKVVELVKKYMDLGVKVEYKEEHVEGDKATAKVEADAGGQTVRFHVHYKATGRKMDRVEVQYDETAKKVIKHG”, the protease stability score is -0.131.

For “DEKEIRKLLETMLKAFVNGNLEVVRKMLKDDGEVEYLDTRRHGPDRAVELVKRLLDLGYEVEYKEVHVKGDTVTANVEANADGKTVRFQVTYQARGRRVDNFKVKYDEDAQKVIKHG”, the protease stability score stood at 1.79.

Consider “DEKEIRKLLQKMAKMFEEGNNEELRKLGDDDLQVTYGDEEYKGPDDLVKVLETVKKLGAKVEYKEVHVEGDTVTVKVEAEMGGRKARYKVKYQADGNKVKRFQVEYSEDAQKAIKEG”, for which the protease stability score is 1.28.

In turn, “DEKEKAEDFMRKMQKIAKTNNPTELDDQFDEDAKLVVGDKRYHGRKQMQKHYKELRKRVDHFRLEVKRIDVSGDKVRFDAKYEADVNGRRETVDMRFVVRRVGDKDRAENAQWK” gave a protease stability score of 0.285.

“DEKEKAKKMFEKWHDVWRTNDPKKMNELADKDARINVGEKNYHGREHVEKIWRDLMERIDHVQLRVQTITSTGDKVEIRATVVIDHNGKQDEDTYVYVFQIDNGTVSFVQVRQS” registered a protease stability score of 0.576.

“DEKEKLKQLARKFHKAMQTGDEDELKKNVDENVRADYGDRRYHGSEELAKWLREMKTKVDHLSMTIKDIRVKGDRAEIELEMTFDHNGRQETRQFTLQAQVHNGSLKIVQIRQS” displayed a protease stability score of 1.32.

As for “DEKELKKVLERLVKAFKNGNTEEAKKLGKDDVQVEYGDEKYEGPDAMRTVLERVKKLGYEVEYKEEHYKGDTVTVKVEANLGGRTAKFRFQYQVQGQRVDKVKVEYSETAQKQIKHG”, the protease stability score was -0.106.

In the case of “DEKELKKVLKTVVEYLKNGKAERVVKHLHDDVQVIYDDEEVHGADKFKEMVEKFQKLGYKVEYKEVHVEGDTATVKVQVDAGGETAEFHVTYQATGQKVDRMEVKYDERAQKVIKHG”, the protease stability score came to 1.14.

As to “DEKELNDLKRVVRHGDEDRLEELMDEDVRMKVGNKEISGRSHAVKVMKKLNEKADHIEIKDIKISGEKVVVDLVFEVNGTKIKMRLIIVVRNGKIKHAQIEVTDEEVEDNLHKFLD”, the protease stability score stood at 0.972.

The sequence “DEKELQKVLQKVMKLFQNGNIEELQKVVKDDVQLRYADKEYHGPDAVKTVVKRYRDLGAKVEYDELHVEGDKATAKVRADYGGTTVRMKVTYKVTGQKVDRMQVKYDEKAQKQIKHG” came in with a protease stability score of -0.142.

Sequence “DEKEMQEFAKEVVKMLQTGDERKNERNVDKDVRVKIGEKVLHGREDNSKWIQEWRDRVDHIRIDHVHVHGEKVIVTVTAVVNGVEVEFQMVMEVHNGRAENVQVKYRNPDELRRFKS” gave a protease stability score of -0.263.

“DEKENKKLATELNQNLQTGDPDKLARLADPNARAQYGETTYHGRSQIKTMWETLSRQVDNVELKHMHVQGNEVEVVLTFNVNGKEYELRITASFKNGRLKDLQIDPDEIQRAEK” displayed a protease stability score of 0.4.

“DEKEQADDAVRQLESAFNQGDWKKLADLFDENARVQYGDKELHGRQKWTTLVRDMEREHDHVEARVKSVHYHNGKIHLKIEIKAETNGRTTSVHVRYVAVVTNGRVEFENAKYS”: the protease stability score was 0.973.

“DEKEQEDFARSFIEAFRTNDPSQIKTLMDEEATVSVGDKTYHGRKAAEDWATQLKEEVDHIDVKDLKVHNGHIEIEVRLKVNGHTRDYLISIQFHNGRVKRMSVSKQ” registered a protease stability score of -0.432.

Turning to “DEKEQEVLDRFMRALRTGNPDDADKNVDKDVNVRYGDRTIKGRESFHEEIRREHQEIRLDYRSVNNQVHNGQANVDVDAIWNVNGRPHRVKVHIRAQIHDGRIKHQRFRMDPEEKKRVDS”, the protease stability score came out at 0.054.

“DEKEQKENAKKMADAIERGDPDKLSELMDENAKVTVGDKTIHGRRQAHEWLKEFRDQADHVEIKEFTVNGNRVIIHVKVRHNGSESERVMTVSWHNGKVKSASFRSN” had a protease stability score of 0.63.

Take “DEKEQTDILLRAMQILTHGDEKRFEELADPNVHVDVGDKTVHGRTQARKWYHDLRRQVDRIHIKHVTVKNGRATIDVVFDRNGRKEKMVLVIQAHNGKIKRAKVEES”: the protease stability score was -0.125.

“DEKESADRMIQRLQELMDQNNEEEIKNEVDENARAVVGDKEYHGDEQFAKALITVVKQYDHISIQIRSFTHTNGKNVATFEATFHHNGKNDTVKIEVVFDEVNGRHNLVRLVMK” yielded a protease stability score of 1.22.

Sequence “DEKETHKVLEKIEKVLHNFNIDEAKKVLKDDVRVQYLDEEYHGPDAAEKRLTKVKKLGAQVEYKEAHVEGNRVKAKVQVNVGGRTLEFTVEYTAKGHKVDEFRVQYDEDAQKTIKHG” displayed a protease stability score of 0.76.

For the sequence “DEKETKKVLEQAAKLFVNGDVHRVMQLGADDVEVEYGDERYHGKDAAKRVIEKHQKLGIKVEYDELHVEGDRVKAKVRADQAGTTAHFTFEYKATGQRVDKMRVKYDETAQKMIKHG”, the protease stability score is -0.23.

“DEKETKKVLERIVKIFENGNAEEAKKMGKEDVEVEYGDETKHGPDALYEFIEKMKKLGAKVEYKEVHVEGDKVTVRIQADYGGRRAEMHVTYQATGNRVDNVKLKYSKTAQEMIKHG” returned a protease stability score of 0.084.

With “DEKETQKLLEKLAKYFVNGDLEKVKKVGKEDVEVEYGSERKHGPDAMKEHVETHKRLGIEVRYEEVHVEGDTVTAKVQADVAGHTAEMTVVYQAQGRRVDKVKLKYSEKAQKAIKHG”, the protease stability score is -0.133.

“DEKETRKLLKDVAEAFENGNNEEIKKLLKDDVEVQYADKRVHGPDQVVEMVKKYQDLGAKVEYKKLDVRGDTVTVDVQADLGGRTAEFKVTYQAQGQKVDRFKVKYDETAKKLIKHG” registered a protease stability score of 0.22.

The sequence “DEKEVATRFVKTVVEILRRGNPDDWMKLVDPNATAHYGDKTYHGREELKTLMEDRNRHADRIDVDVKSYDAHNGKVQVHVVVVQTHNGRSTTHEVRIVADLHNGDAKIRSIQEQ” displayed a protease stability score of 0.713.

For “DEKEVKDADKEMERLMKKNDFQHIVDQMDPNAKIIVGDQDLHGKEEAEKVAQEMDKQIDSIEVKSVHAHGDKAVVHFVNHHNGRNKRVVITLRWSNGRIQEMQIQDQ”, the protease stability score is -0.157.

Turning to “DEKEVKDNAHDLFRAMQTGDEQEIENLMDENVEAQVGDTTWHGREEAARELVLTQKRYDRVRVDRIQVTGEDVKIDFKLNIDGTKETHILVMRVHNGKIVSMSNETR”, the protease stability score was found to be 1.51.

On to “DEKEVQKVLETMAKMFVNGNNEEVKKLGHDDIQVQYGDEEKHGPDAMVDFIKKYQDLGAEVEYKHLKVEGNEVEVDVEATLGGKTVRYKVKYEATGHKVHRVEVKYTDEAKDAIKKG”, for which the protease stability score worked out at 0.657.

“DEKEYAEQFFRHMEEIYQNGDEDRAQELFDPNARMEVGDKEVHGNEKFREEIHKIKETSDRFSIRVKEIDVHGDKIVVEAERSFEHNGQRRSEVYTVRMVIENGQAKIKSAHHK” yielded a protease stability score of 0.235.

“DEKFKEAVERFIKALQDNNHKEMKDNADPNVKAQVGDSEVHGMDEMLRQLYKRYQELRVSYKHLSITVRGDKVEIRASVKLVHNGTPTEREVSVEVEAKNGRIKSMRINNTK” gave a protease stability score of 0.493.

Sequence “DEKHAHKIVRAWSQGDPDQLAELADPNVRLVVGDKTYDGRESFVKWLKDLRKRIDHVRVDSVKINGNKIEIDMRFQVDGVHLVVTVDIEFKNGKIKDVRIQYRDEEQLKDIKKVVR” gave a protease stability score of 1.2.

In turn, “DEKHAQHAAEIAEQGDPDEWEELADKDVKVDIGDQRVHGREQASSFWRKLREQADTIEYKSYRVDNGRVQLDFVVDINGHRLEFTLRFVVDNGRITEMEVQARDERQNEELKKIDS” displayed a protease stability score of 0.524.

Take “DEKHDAKRVWETILNQLRRGDSEEFMKLADKDVKIEYGDKTIHGREDLKSWMNERQKDYDHLDADLTHMDVQGEDVNVTYTDRAKHNGTEHHRTVQAVFRVHNGRLRLQSWYHS”: the protease stability score came to 0.494.

Regarding “DEKHLERQVDHFLDALHRGDEDEAVNLADPDVEFQVGDRTYHGKEQLKEWLKRLVDRVDHVDIKNITVSGDKVEVHADFSVDGRKETMTFTVRAHNGRIKHMTIDKG”, the protease stability score was 1.27.

“DEKHVKKVVDRVLDALEKKNKDELVKLVKPDVEFHVADTKFEGTDQLHKYYDKVFRKGVEFHVKEVKVEGNKAQVRYDVRAGGHQETVQFEVTVKDERVDRARAEMTEKYKKLVTKG” had a protease stability score of 0.086.

“DEKHYKKVLKRVLDYFMKGNKEQVKKIAKPDVEFHAGKMKIEGTDHLAKYYEKLQRKGVKLEIKEQHVTGDTVEVKYELEVGGTKVTVKATLKVKDDKVDKAEAKNDDDYHKRVKKG” gave a protease stability score of 0.117.

With “DEKIKQNIEEFLKAVQHGDEERMTQLVDPNAKIVVGNQRVHGMEEYARDIVRKVKEIRIKIDRMHISVQGNKAVITMVYVININGKPVTFRAVYIYEVHDGRVKRVKNNIPEEDQKKVDS”, the protease stability score is 0.733.
